# In the Human Domainome abundance scans (Beltran et al. 2025):
# ± gives the uncertainty stated by the source.
# B1: POU domain, class 3, transcription factor 2, residues 356 to 411; numbered along this chain, P20265 (parent)
# chain: KKRTSIEVSVKGALESHFLKCPKPSAQEITSLADSLQLEKEVVRVWFCNRRQKEKR
# Variants of: B1
# Assay: abundance fitness (aPCA) (normalised: wild type 0, dead -1); higher = more abundant; growth selection in yeast, the domain comes from the species named
# Settings: Homo sapiens
row,Variant,abundance fitness
1,KKRTSIEVSVKGALEWHFLKCPKPSAQEITSLADSLQLEKEVVRVWFCNRRQKEKR [S16W],-0.399 ± 0.11
2,KKRTSIEVSVKGALEYHFLKCPKPSAQEITSLADSLQLEKEVVRVWFCNRRQKEKR [S16Y],-0.382 ± 0.16
3,KKRTSIEVSVKGALEHHFLKCPKPSAQEITSLADSLQLEKEVVRVWFCNRRQKEKR [S16H],-0.21 ± 0.16
4,KKRTSIEVSVKGALEAHFLKCPKPSAQEITSLADSLQLEKEVVRVWFCNRRQKEKR [S16A],0.097 ± 0.11
5,KKRTSIEVSVKGALECHFLKCPKPSAQEITSLADSLQLEKEVVRVWFCNRRQKEKR [S16C],-0.226 ± 0.12
6,KKRTSIEVSVKGALEQHFLKCPKPSAQEITSLADSLQLEKEVVRVWFCNRRQKEKR [S16Q],0.073 ± 0.15
7,KKRTSIEVSVKGALEEHFLKCPKPSAQEITSLADSLQLEKEVVRVWFCNRRQKEKR [S16E],-0.015 ± 0.1
8,KKRTSIEVSVKGALETHFLKCPKPSAQEITSLADSLQLEKEVVRVWFCNRRQKEKR [S16T],-0.034 ± 0.11
9,KKRTSIEVSVKGALEPHFLKCPKPSAQEITSLADSLQLEKEVVRVWFCNRRQKEKR [S16P],-0.539 ± 0.14
10,KKRTSIEVSVKGALERHFLKCPKPSAQEITSLADSLQLEKEVVRVWFCNRRQKEKR [S16R],-0.055 ± 0.072
11,KKRTSIEVSVKGALENHFLKCPKPSAQEITSLADSLQLEKEVVRVWFCNRRQKEKR [S16N],-0.297 ± 0.15
12,KKRTSIEVSVKGALEIHFLKCPKPSAQEITSLADSLQLEKEVVRVWFCNRRQKEKR [S16I],-0.368 ± 0.18
13,KKRTSIEVSVKGALEKHFLKCPKPSAQEITSLADSLQLEKEVVRVWFCNRRQKEKR [S16K],0.12 ± 0.13
14,KKRTSIEVSVKGALEMHFLKCPKPSAQEITSLADSLQLEKEVVRVWFCNRRQKEKR [S16M],-0.06 ± 0.12
15,KKRTSIEVSVKGALEDHFLKCPKPSAQEITSLADSLQLEKEVVRVWFCNRRQKEKR [S16D],-0.193 ± 0.15
16,KKRTSIEVSVKGALYSHFLKCPKPSAQEITSLADSLQLEKEVVRVWFCNRRQKEKR [E15Y],-0.777 ± 0.21
17,KKRTSIEVSVKGALASHFLKCPKPSAQEITSLADSLQLEKEVVRVWFCNRRQKEKR [E15A],-0.88 ± 0.15
18,KKRTSIEVSVKGALCSHFLKCPKPSAQEITSLADSLQLEKEVVRVWFCNRRQKEKR [E15C],-0.612 ± 0.18
19,KKRTSIEVSVKGALISHFLKCPKPSAQEITSLADSLQLEKEVVRVWFCNRRQKEKR [E15I],-0.649 ± 0.14
20,KKRTSIEVSVKGALDSHFLKCPKPSAQEITSLADSLQLEKEVVRVWFCNRRQKEKR [E15D],-0.623 ± 0.18
21,KKRTSIEVSVKGALNSHFLKCPKPSAQEITSLADSLQLEKEVVRVWFCNRRQKEKR [E15N],-0.693 ± 0.18
22,KKRTSIEVSVKGALWSHFLKCPKPSAQEITSLADSLQLEKEVVRVWFCNRRQKEKR [E15W],-0.822 ± 0.15
23,KKRTSIEVSVKGALGSHFLKCPKPSAQEITSLADSLQLEKEVVRVWFCNRRQKEKR [E15G],-0.885 ± 0.11
24,KKRTSIEVSVKGALPSHFLKCPKPSAQEITSLADSLQLEKEVVRVWFCNRRQKEKR [E15P],-1.04 ± 0.22

row,Variant,abundance fitness
1,KKRTSIEVSVKGALQSHFLKCPKPSAQEITSLADSLQLEKEVVRVWFCNRRQKEKR [E15Q],-0.527 ± 0.24
2,KKRTSIEVSVKGALSSHFLKCPKPSAQEITSLADSLQLEKEVVRVWFCNRRQKEKR [E15S],-0.959 ± 0.14
3,KKRTSIEVSVKGALTSHFLKCPKPSAQEITSLADSLQLEKEVVRVWFCNRRQKEKR [E15T],-0.788 ± 0.17
4,KKRTSIEVSVKGALHSHFLKCPKPSAQEITSLADSLQLEKEVVRVWFCNRRQKEKR [E15H],-0.805 ± 0.36
5,KKRTSIEVSVKGALKSHFLKCPKPSAQEITSLADSLQLEKEVVRVWFCNRRQKEKR [E15K],-0.83 ± 0.21
6,KKRTSIEVSVKGALRSHFLKCPKPSAQEITSLADSLQLEKEVVRVWFCNRRQKEKR [E15R],-1.02 ± 0.14
7,KKRTSIEVSVKGALMSHFLKCPKPSAQEITSLADSLQLEKEVVRVWFCNRRQKEKR [E15M],-0.649 ± 0.15
8,KKRTSIEVSVKGHLESHFLKCPKPSAQEITSLADSLQLEKEVVRVWFCNRRQKEKR [A13H],-0.196 ± 0.2
9,KKRTSIEVSVKGKLESHFLKCPKPSAQEITSLADSLQLEKEVVRVWFCNRRQKEKR [A13K],0.081 ± 0.15
10,KKRTSIEVSVKGVLESHFLKCPKPSAQEITSLADSLQLEKEVVRVWFCNRRQKEKR [A13V],0.042 ± 0.097
11,KKRTSIEVSVKGGLESHFLKCPKPSAQEITSLADSLQLEKEVVRVWFCNRRQKEKR [A13G],-0.379 ± 0.088
12,KKRTSIEVSVKGLLESHFLKCPKPSAQEITSLADSLQLEKEVVRVWFCNRRQKEKR [A13L],-0.074 ± 0.084
13,KKRTSIEVSVKGTLESHFLKCPKPSAQEITSLADSLQLEKEVVRVWFCNRRQKEKR [A13T],-0.064 ± 0.12
14,KKRTSIEVSVKGMLESHFLKCPKPSAQEITSLADSLQLEKEVVRVWFCNRRQKEKR [A13M],0.024 ± 0.14
15,KKRTSIEVSVKGNLESHFLKCPKPSAQEITSLADSLQLEKEVVRVWFCNRRQKEKR [A13N],-0.211 ± 0.16
16,KKRTSIEVSVKGYLESHFLKCPKPSAQEITSLADSLQLEKEVVRVWFCNRRQKEKR [A13Y],-0.142 ± 0.12
17,KKRTSIEVSVKGILESHFLKCPKPSAQEITSLADSLQLEKEVVRVWFCNRRQKEKR [A13I],-0.184 ± 0.15
18,KKRTSIEVSVKGRLESHFLKCPKPSAQEITSLADSLQLEKEVVRVWFCNRRQKEKR [A13R],0.083 ± 0.08
19,KKRTSIEVSVKGPLESHFLKCPKPSAQEITSLADSLQLEKEVVRVWFCNRRQKEKR [A13P],-0.442 ± 0.19
20,KKRTSIEVSVKGSLESHFLKCPKPSAQEITSLADSLQLEKEVVRVWFCNRRQKEKR [A13S],-0.162 ± 0.09
21,KKRTSIEVSVKGWLESHFLKCPKPSAQEITSLADSLQLEKEVVRVWFCNRRQKEKR [A13W],-0.422 ± 0.11
22,KKRTSIEVSVKGQLESHFLKCPKPSAQEITSLADSLQLEKEVVRVWFCNRRQKEKR [A13Q],0.011 ± 0.14
23,KKRTSIEVSVKGALESHHLKCPKPSAQEITSLADSLQLEKEVVRVWFCNRRQKEKR [F18H],-0.938 ± 0.27
